Assay results from article doi:10.1101/2021.03.25.436804 (bioRxiv, 2021).

Experiments:
Experiment in all cases: BLI
[1] = target: NRP2 a2b1b2 (human neuropilin 2 residues 145-595, monoFc-tagged) (human) (UniProt O60462)
[2] = target: monoFc-tagged NRP2 (human neuropilin 2 residues 23-595, a1a2b1b2) (human) (UniProt O60462)
[3] = target: soluble ectodomain of the HCMV Pentamer (strain Towne) (Human cytomegalovirus strain Towne, UniProt P17176;F5HCH8;P16837;F5HCP3;F5HET4)

soluble ectodomain of the HCMV Pentamer (strain Towne) (from UniProt P17176 24-718) (complex), sequence (P17176 whole entry, looked up, the tested form may be a part): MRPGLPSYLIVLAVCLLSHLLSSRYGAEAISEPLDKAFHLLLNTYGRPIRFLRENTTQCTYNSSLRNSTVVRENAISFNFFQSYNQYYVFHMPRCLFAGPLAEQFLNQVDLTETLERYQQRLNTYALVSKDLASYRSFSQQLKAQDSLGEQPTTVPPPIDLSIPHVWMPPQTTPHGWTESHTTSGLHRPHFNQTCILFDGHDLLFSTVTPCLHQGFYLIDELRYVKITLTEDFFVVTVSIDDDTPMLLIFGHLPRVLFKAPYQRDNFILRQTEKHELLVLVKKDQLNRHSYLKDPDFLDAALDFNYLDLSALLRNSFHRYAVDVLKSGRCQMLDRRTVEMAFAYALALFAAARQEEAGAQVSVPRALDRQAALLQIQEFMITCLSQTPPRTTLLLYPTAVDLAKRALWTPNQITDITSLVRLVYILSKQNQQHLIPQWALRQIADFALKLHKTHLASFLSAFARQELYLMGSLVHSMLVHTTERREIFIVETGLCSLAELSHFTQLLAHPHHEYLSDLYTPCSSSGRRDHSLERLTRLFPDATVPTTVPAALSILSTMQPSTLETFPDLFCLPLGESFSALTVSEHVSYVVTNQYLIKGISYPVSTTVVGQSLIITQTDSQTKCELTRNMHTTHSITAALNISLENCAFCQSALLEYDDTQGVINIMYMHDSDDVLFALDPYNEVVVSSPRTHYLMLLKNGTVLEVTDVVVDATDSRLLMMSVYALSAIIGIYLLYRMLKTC
NRP2 a2b1b2 (human neuropilin 2 residues 145-595, monoFc-tagged) (human), sequence (O60462 145-595): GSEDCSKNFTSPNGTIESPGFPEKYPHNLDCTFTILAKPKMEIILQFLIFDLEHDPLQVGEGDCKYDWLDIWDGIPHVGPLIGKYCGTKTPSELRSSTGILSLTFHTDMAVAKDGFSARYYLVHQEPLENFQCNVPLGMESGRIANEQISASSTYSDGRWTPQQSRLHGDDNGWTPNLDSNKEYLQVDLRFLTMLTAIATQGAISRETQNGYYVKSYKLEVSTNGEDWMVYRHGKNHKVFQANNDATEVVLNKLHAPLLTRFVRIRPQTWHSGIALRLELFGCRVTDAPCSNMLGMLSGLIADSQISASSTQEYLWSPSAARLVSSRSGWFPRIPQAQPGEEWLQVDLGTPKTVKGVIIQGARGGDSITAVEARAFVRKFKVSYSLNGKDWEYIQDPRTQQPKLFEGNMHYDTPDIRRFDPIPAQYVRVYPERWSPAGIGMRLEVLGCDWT
monoFc-tagged NRP2 (human neuropilin 2 residues 23-595, a1a2b1b2) (human), sequence (O60462 23-595): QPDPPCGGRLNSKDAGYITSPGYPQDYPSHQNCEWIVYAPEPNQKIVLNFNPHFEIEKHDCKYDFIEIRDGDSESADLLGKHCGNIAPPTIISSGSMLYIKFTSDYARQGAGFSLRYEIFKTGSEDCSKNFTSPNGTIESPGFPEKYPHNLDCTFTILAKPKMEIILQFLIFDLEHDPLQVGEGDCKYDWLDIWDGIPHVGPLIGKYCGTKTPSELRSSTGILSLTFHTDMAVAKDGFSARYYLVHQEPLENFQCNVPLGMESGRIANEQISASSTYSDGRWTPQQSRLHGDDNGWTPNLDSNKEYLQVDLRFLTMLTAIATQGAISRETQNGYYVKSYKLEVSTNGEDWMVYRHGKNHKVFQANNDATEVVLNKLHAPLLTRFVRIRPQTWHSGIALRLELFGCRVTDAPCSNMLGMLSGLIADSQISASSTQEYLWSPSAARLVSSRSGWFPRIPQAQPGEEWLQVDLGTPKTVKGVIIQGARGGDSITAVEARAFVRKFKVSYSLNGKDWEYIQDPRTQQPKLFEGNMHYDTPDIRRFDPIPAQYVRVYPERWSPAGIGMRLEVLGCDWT

| Molecule | Kd [1] | Kd [2] | binding result [3] |
| --- | --- | --- | --- |
| soluble ectodomain of the HCMV Pentamer (strain Towne) (from UniProt P17176 24-718) (complex) | 7.9 nM | 2.2 nM | – |
| 1-32 IgG (antibody, V domains shown) VH: QVKLVESGGGVVQPGRSLRLSCAGSGFAFDNYAMHWVRQAPGKGLEWVAVISLEGRNKYYAGPAKGRFSISRDNSRNTVHLQMNSLRPEDTAVYFCARDMRYYYDSNGHYRNRYGMDVWGQGTTVIVSS VL: DIQMTQSPSSLSASVGDSVTITCQASQDINQFVSWYQQKPGKPPKLLIYDASNLESGVPSRFSGSGSGTHFTFTISSLQPDDIATYYCQQYENLFTFGPGTKVDIK | – | – | binds |
